This is an account of results in patent US20260015420A1 (CENTESSA PHARMACEUTICALS UK, published 2026).

The EC50 (read off the curve) is the concentration needed to bring the measured effect to its halfway point. By IC50 is commonly meant the concentration needed to halve the response being measured.

Test [1] addresses Insulin. Put plainly: ELISA on coated insulin, OD450. Background: In an ELISA, binding on a coated surface is turned into a signal by an enzyme label.
The target of test [2] is T1, human CD47-Fc (human, UniProt Q08722 19-139).
T1 construct: also called hCD47; human CD47-Fc protein; not shown: Fc part
Put plainly: HTRF competition with labelled h5F9G4 IgG1 (m11) for human CD47-Fc, normalised 665/615 ratio. Background: Time-resolved FRET reads energy transfer from a long-lived donor to a nearby acceptor.

Test [3] deals with T1, human CD47-Fc. Put plainly: direct ELISA, coated human CD47-Fc, OD450.
The target in test [4] is T2, cynomolgus monkey CD47-Fc (cynomolgus monkey, UniProt Q08722 19-139 (human entry), limits assumed).
T2 construct: also called cCD47; cyno CD47-Fc; not shown: Fc part
T2 chain: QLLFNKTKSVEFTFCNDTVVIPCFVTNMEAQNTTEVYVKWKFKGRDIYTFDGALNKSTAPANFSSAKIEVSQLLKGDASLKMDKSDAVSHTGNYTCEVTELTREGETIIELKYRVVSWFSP
Put plainly: competition ELISA: cyno CD47-Fc binding to plate-bound human SIRPa-Fc, OD450.

The target of test [5] is T2, cynomolgus monkey CD47-Fc. In words: HTRF epitope competition; competitor Tb-labelled h5F9G4 IgG1 on biotinylated cyno CD47-Fc.
Test [6] deals with T3, human CD47 on cells (human CD47-transfected CHO-K1 cells; HL60; Jurkat) (human, UniProt Q08722 19-323).
T3 construct: CHO-K1 cells stably transfected with human CD47 full-length cDNA; also endogenous CD47 of the human AML line HL60 and of Jurkat cells; also called human CD47+ cells; human CD47+CHO-K1
Put plainly: flow cytometry, human CD47-transfected CHO-K1 cells, 100-0.024 µg/ml. On the technique in general: A flow cytometer gives signals particle by particle.

Test [7] deals with T2, cynomolgus monkey CD47-Fc. In words: direct ELISA, coated cyno CD47-Fc, OD450 [D00009 FIG. 6D; D00010 FIG. 6F; D00011 FIG. 6H].
The target in test [8] is T2, cynomolgus monkey CD47-Fc. In words: competition ELISA: cyno CD47-Fc binding to plate-bound human SIRPa-Fc, % binding.
Test [9] concerns the target T1, human CD47-Fc. Put plainly: HTRF epitope competition; competitor Tb-labelled h5F9G4 IgG1 on biotinylated human CD47-Fc.
The target in test [10] is T1, human CD47-Fc. Put plainly: direct ELISA, coated human CD47-Fc, OD450 [D00009 FIG. 6C; D00010 FIG. 6E; D00011 FIG. 6G].
For test [11], the target named is T1, human CD47-Fc. Put plainly: HTRF competition with labelled h5F9G4 IgG1 (m11) for human CD47-Fc, 665/615 ratio.
In test [12] the target is T4, cynomolgus monkey CD47 on cyno CD47-transfected CHO-K1 cells (cynomolgus monkey, UniProt Q08722 19-323 (human entry)).
T4 construct: CHO-K1 cells stably transfected with cyno CD47 full-length cDNA; also called cyno CD47+ cells; cyno CD47+CHO-K1
T4 chain: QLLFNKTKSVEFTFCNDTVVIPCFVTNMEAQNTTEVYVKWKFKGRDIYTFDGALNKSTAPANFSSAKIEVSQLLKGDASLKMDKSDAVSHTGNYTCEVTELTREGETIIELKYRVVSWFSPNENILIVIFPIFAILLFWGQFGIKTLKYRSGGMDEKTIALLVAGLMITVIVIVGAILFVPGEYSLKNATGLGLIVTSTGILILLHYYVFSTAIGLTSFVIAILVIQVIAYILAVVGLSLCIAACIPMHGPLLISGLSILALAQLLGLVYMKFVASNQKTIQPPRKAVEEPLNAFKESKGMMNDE
Put plainly: flow cytometry, cyno CD47-transfected CHO-K1 cells, 100-0.024 µg/ml.

For test [13], the target named is T1, human CD47-Fc. In words: competition ELISA: human CD47-Fc binding to plate-bound human SIRPa-Fc, % binding.
For test [14], the target named is T1, human CD47-Fc. In words: HTRF competition with labelled h5F9G4 IgG1 (m11) for human CD47-Fc, 665/615 ratio. The source holds these as a separate data set.
Test [15] has as its target T1, human CD47-Fc. In words: competition ELISA: human CD47-Fc binding to plate-bound human SIRPa-Fc, OD450.
The target of test [16] is T2, cynomolgus monkey CD47-Fc. Put plainly: HTRF competition with labelled h5F9G4 IgG1 (m11) for cyno CD47-Fc, normalised 665/615 ratio.

Sequence of Insulin (P01308 25-54, chain 1 of 2): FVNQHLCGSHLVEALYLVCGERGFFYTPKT
Sequence of Insulin (P01308 90-110, chain 2 of 2): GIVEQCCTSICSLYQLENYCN

In [1], “Bococizumab human IgG1 analogue (antibody)” had an EC50 (read off the curve) of 0.02 µg/mL.

B1: chimeric anti-CD47 m5F9G4, human IgG1null (antibody, V domains shown)
VH: QVQLQQPGAELVKPGASVMMSCKASGYTFTNYNMHWVKQTPGQGLEWIGTIYPGNDDTSYNQKFKDKATLTADKSSSAAYMQLSSLTSEDSAVYYCARGGYRAMDYWGQGTSVTVSS
VL: DVLMTQTPLSLPVSLGDQASISCRSSQSIVYSNGNTYLGWYLQKPGQSPKLLIYKVSNRFSGVPDRFSGSGSGTDFTLKISRVEAEDLGVYHCFQGSHVPYTFGGGTKVEIK
notes: Murine v-domains on human IgG1null (IgG1 with L234A/L235A/G237A), kappa; also called m5F9G4 IgG1; m59G4
As to B1, the “IC50 (read off the curve)” value in [2] is ~0.3 µg/mL; in [4], ~3 nM; in test [8], ~0.2 µg/mL; in [11], ~0.05 µg/mL; in test [13] it was ~0.3 µg/mL; in [14], ~0.05 µg/mL. Besides, the “IC50 (read off the curve)” value in [15] is ~1 nM; in [16], ~0.1 µg/mL. For the same molecule, the “EC50 (read off the curve)” value was ~0.04 µg/mL in [3], ~0.06 µg/mL in test [7] and ~0.07 µg/mL in test [10]. For the same molecule, the figures for the IC50 in [5] and in test [9] were 0.809 µg/mL and 0.601 µg/mL, respectively. Further, the “maximum MFI over background on untransfected CHO-K1 (fold)” value in test [6] and in [12] was > 50 fold each time.

B2: IGHV5-51 graft IgG (IGKV2-28/IGHV5-51 graft), human IgG1null (antibody, V domains shown)
VH: EVQLVQSGAEVKKPGESLKISCKGSGYSFTNYNMHWVRQMPGKGLEWMGTIYPGNDDTSYNQKFQGQVTISADKSISTAYLQWSSLKASDTAMYYCARGGYRAMDYWGQGTLVTVSS
VL: DIVMTQSPLSLPVTPGEPASISCRSSQSIVYSNGNTYLGWYLQKPGQSPQLLIYKVSNRFSGVPDRFSGSGSGTDFTLKISRVEAEDVGVYYCFQGSHVPYTFGQGTKLEIK
notes: IgG1null; also called IGHV5-51 grafted IgG; IGHV5-51-grafted IgG
As to B2, the “IC50 (read off the curve)” value was ~5 nM in test [4], ~0.3 µg/mL in test [11] and ~4 nM in test [15].
